Reference: patent US8124835B2, “Acyl-coa-dependent diacylglycerol acyltransferas 1 (DGAT1) gene from Tropaeolum majus, protein encoded thereby and uses thereof” (National Research Council of Canada, priority 2006, dated 2012)
Entries after “also recorded” stand apart in the source; their conditions may differ.

System: DGAT activity
Test: DGAT activity of site-directed mutagenized (SDM) TmDGAT1s expressed in yeast quadruple mutant H1246 MATα
Format: biochemical, Tropaeolum majus
From the text: FIG. 13. Expression of site-directed mutagenized (SDM) TmDGAT1 cDNAs in yeast quadruple mutant H1246 MATα. (A) The nasturtium DGAT1 cDNAs in pYES2/NT plasmid were transformed into a yeast DGAT mutant strain: H1246 MATα. The specific SDM changes were: F2R=Phe^439 to Arg (SEQ. ID. NO: 4, refer to SEQ. ID. NO: 10 for the nucleotide sequence); P2R=Pro^216 to Arg (SEQ. ID. NO: 5, refer to SEQ. ID. NO: 11 for the nucleotide sequence); Y2G_W2G=Tyr^392 to Gly+Trp^395 to Gly (SEQ. ID. NO: 9, refer to SEQ. ID. NO: 15 for the nucleotide sequence); Y2A=Tyr^392 to Ala (SEQ. ID. NO: 8, refer to SEQ. ID. NO: 14 for the nucleotide sequence); S2A=Ser^197 to Ala (SEQ. ID. NO: 6, refer to SEQ. ID. NO: 12 for the nucleotide sequence) and E2V=E^145 to Val (SEQ. ID. NO: 7, refer to SEQ. ID. NO: 13 for the nucleotide sequence). Yeast cells transformed with pYES2/NT plasmid only was used as a control. The mutant, transformed with the native TmDGAT1, was used as a positive DGAT control. Following the induction in the presence of galactose, the transformants were lysed and assayed for DGAT activity. (B) Western blot of the SDM TmDGATs using an Anti-Xpress antibody. Following a 7 h lyse, a 15,000×g protein pellet isolated and proteins separated by SDS-PAGE.
FIG. 14. SDM TmDGATs (SnRK1 and Tyr-P sites) activity utilizing ^14C labeled erucoyl-CoA or oleoyl-CoA+sn-1,2-diolein or dierucin. SDM TmDGATs were transformed into yeast DGAT mutant, H1246 MATα, following induction by galactose the yeast were assayed for DGAT activity. Activity is expressed as a percent of native TmDGAT, with native TmDGAT activity set at 100%.
The TmDGAT1 ORF (SEQ. ID. NO: 2) in pYES2.1/V5-His-TOPO plasmid was transformed into a quadruple yeast mutant H1246MATα (Sandager et al, 2002) using the S.c. EasyComp™ transformation Kit (Invitrogen). Yeast cells transformed with pYES2.1/V5-His-TOPO plasmid only were used as a control. Transformants were selected by growth on synthetic complete medium lacking uracil (SC-ura), supplemented with 2% (w/v) glucose. The colonies were transferred into liquid SC-ura with 2% (w/v) glucose and grown at 28° C. overnight. The overnight cultures were diluted to an OD of 0.4 in induction medium (SC-ura+2% Galactose+1% Raffinose), and were induced for 24-36 hours at 28° C. Cells were collected and broken using glass beads. The crude protein concentration in the lysates was normalized using the Biorad assay based on the method of (Bradford, 1976) and assayed for DGAT activity. DGAT assays were conducted at pH 7.4, with shaking at 100 rev/min in a water bath at 30° C. for 60 min. Assay mixtures (0.5 ml final volume) contained 500 μg lysate protein normalized as described above, 90 mM HEPES-NaOH, 200 μM sn-1,2 diolein or sn-1,2 dierucin (pre-purified by TLC on 10% borate silica H plates) in 0.02% Tween-20, and 18 μM 1-^14C acyl-CoA (specific activity 2 nCi/nmol) as the acyl donor. The ^14C-labelled TAGs were isolated and counted as described above for insect cell expression.
To introduce point mutations into the Tropaeolum majus DGAT1 coding region, we used a QuikChange™ site-directed mutagenesis kit (Stratagene). Primers were complementary to opposite strands of pYES2.1/V5-His TOPO yeast expression vector (Invitrogen) containing the TmDGAT1 gene. During the PCR, primers were extended with PfuTurbo DNA polymerase. This polymerase replicated both strands with high fidelity and without displacing the mutated oligonucleotide primers. The cycling parameters used for site-directed mutagenesis were as follows: initial denaturation at 95° C. for 30 s, followed by 15 cycles at 95° C. for 30 s, 55° C. for 1 min, and 68° C. for 15 min, with termination at 68° C. for 15 min. Following the PCR reaction, the product was treated with DpnI endonuclease (target sequence: 5′-Gm6ATC-3′) which is specific for methylated and hemimethylated DNA, used to digest the parental DNA template and to select for the mutated DNA.

[1] = recombinant SDM protein from yeast H1246MATα

B1: P216R (protein)
chain: MAVAESSQNTTTMSGHGDSDLNNFRRRKPSSSVIEPSSSGFTSTNGVPATGHVAENRDQDRVGAMENATGSVNLIGNGGGVVIGNEEKQVGETDIRFTYRPSFPAHRRVRESPLSSDAIFKQSHAGLFNLCIVVLIAVNSRLIIENLMKYGWLIDTGFWFSSRSLGDWSIFMCCLTLPIFPLAAFIVEKLVQRNHISELVAVLLHVIVSTAAVLYRVIVILTCDSVYMSGVVLMLFGCIMWLKLVSYAHTSSDIRTLAKSGYKGDAHPNSTIVSCSYDVSLKSLAYFMVAPTLCYQPSYPRSSCIRKGWVVRQFVKLIVFIGLMGFIIEQYINPIVRNSKHPLKGDFLYAIERVLKLSVPNLYVWLCMFYSFFHLWLNILAELLRFGDREFYKDWWNAKTVAEYWKMWNMPVHRWMVRHLYFPCLRNGIPKEGAIIIAFLVSGAFHELCIAVPCHVFKLWAFIGIMFQVPLVLITNYLQEKFSNSMVGNMIFWFIFCILGQPMCVLLYYHDLINLKEK
**Q.** With B1 as the molecule, how does the “DGAT1 activity compared to recombinant WT TmDGAT1 (in words)” value (recombinant SDM protein from yeast H1246MATα, listed as Proline^216 (changed to an Arg)) read?
**A.** total loss of DGAT activity; also recorded: abolished

**Q.** And the “DGAT1 activity compared to recombinant WT TmDGAT1 (in words)” value (recombinant SDM protein from yeast H1246MATα, listed as Proline^216 with Arginine)?
**A.** total loss of DGAT1 activity

B2: Y392A (protein)
chain: MAVAESSQNTTTMSGHGDSDLNNFRRRKPSSSVIEPSSSGFTSTNGVPATGHVAENRDQDRVGAMENATGSVNLIGNGGGVVIGNEEKQVGETDIRFTYRPSFPAHRRVRESPLSSDAIFKQSHAGLFNLCIVVLIAVNSRLIIENLMKYGWLIDTGFWFSSRSLGDWSIFMCCLTLPIFPLAAFIVEKLVQRNHISELVAVLLHVIVSTAAVLYPVIVILTCDSVYMSGVVLMLFGCIMWLKLVSYAHTSSDIRTLAKSGYKGDAHPNSTIVSCSYDVSLKSLAYFMVAPTLCYQPSYPRSSCIRKGWVVRQFVKLIVFIGLMGFIIEQYINPIVRNSKHPLKGDFLYAIERVLKLSVPNLYVWLCMFYSFFHLWLNILAELLRFGDREFAKDWWNAKTVAEYWKMWNMPVHRWMVRHLYFPCLRNGIPKEGAIIIAFLVSGAFHELCIAVPCHVFKLWAFIGIMFQVPLVLITNYLQEKFSNSMVGNMIFWFIFCILGQPMCVLLYYHDLINLKEK
**Q.** B2 was tested. Which “decrease in DGAT1 activity compared to wild type TmDGAT1” value [1] did it give?
**A.** 80%

B3: Y392G + W395G (protein)
chain: MAVAESSQNTTTMSGHGDSDLNNFRRRKPSSSVIEPSSSGFTSTNGVPATGHVAENRDQDRVGAMENATGSVNLIGNGGGVVIGNEEKQVGETDIRFTYRPSFPAHRRVRESPLSSDAIFKQSHAGLFNLCIVVLIAVNSRLIIENLMKYGWLIDTGFWFSSRSLGDWSIFMCCLTLPIFPLAAFIVEKLVQRNHISELVAVLLHVIVSTAAVLYPVIVILTCDSVYMSGVVLMLFGCIMWLKLVSYAHTSSDIRTLAKSGYKGDAHPNSTIVSCSYDVSLKSLAYFMVAPTLCYQPSYPRSSCIRKGWVVRQFVKLIVFIGLMGFIIEQYINPIVRNSKHPLKGDFLYAIERVLKLSVPNLYVWLCMFYSFFHLWLNILAELLRFGDREFGKDGWNAKTVAEYWKMWNMPVHRWMVRHLYFPCLRNGIPKEGAIIIAFLVSGAFHELCIAVPCHVFKLWAFIGIMFQVPLVLITNYLQEKFSNSMVGNMIFWFIFCILGQPMCVLLYYHDLINLKEK
**Q.** With B3 as the molecule, how does the “DGAT1 activity compared to recombinant WT TmDGAT1 (in words)” value [1] read?
**A.** total loss of activity

B4: S197A: SDM TmDGAT1, Ser197 to Ala in putative SnRK1 phosphorylation motif (SEQ ID NO: 6) (protein, listed as Tropaeolum majus)
chain: MAVAESSQNTTTMSGHGDSDLNNFRRRKPSSSVIEPSSSGFTSTNGVPATGHVAENRDQDRVGAMENATGSVNLIGNGGGVVIGNEEKQVGETDIRFTYRPSFPAHRRVRESPLSSDAIFKQSHAGLFNLCIVVLIAVNSRLIIENLMKYGWLIDTGFWFSSRSLGDWSIFMCCLTLPIFPLAAFIVEKLVQRNHIAELVAVLLHVIVSTAAVLYPVIVILTCDSVYMSGVVLMLFGCIMWLKLVSYAHTSSDIRTLAKSGYKGDAHPNSTIVSCSYDVSLKSLAYFMVAPTLCYQPSYPRSSCIRKGWVVRQFVKLIVFIGLMGFIIEQYINPIVRNSKHPLKGDFLYAIERVLKLSVPNLYVWLCMFYSFFHLWLNILAELLRFGDREFYKDWWNAKTVAEYWKMWNMPVHRWMVRHLYFPCLRNGIPKEGAIIIAFLVSGAFHELCIAVPCHVFKLWAFIGIMFQVPLVLITNYLQEKFSNSMVGNMIFWFIFCILGQPMCVLLYYHDLINLKEK
**Q.** With B4 as the molecule, how does the “increase in trierucin production compared to the native DGAT1” value (erucoyl-CoA:sn-1,2-dierucin pairing of substrates) read?
**A.** ~40%

**Q.** And the “increase in DGAT1 activity compared to wild type TmDGAT1” value [1]?
**A.** up to 125%

B5: E145V: SDM TmDGAT1, Glu145 to Val in the catalytic site (SEQ ID NO: 7) (protein, listed as Tropaeolum majus)
chain: MAVAESSQNTTTMSGHGDSDLNNFRRRKPSSSVIEPSSSGFTSTNGVPATGHVAENRDQDRVGAMENATGSVNLIGNGGGVVIGNEEKQVGETDIRFTYRPSFPAHRRVRESPLSSDAIFKQSHAGLFNLCIVVLIAVNSRLIIVNLMKYGWLIDTGFWFSSRSLGDWSIFMCCLTLPIFPLAAFIVEKLVQRNHISELVAVLLHVIVSTAAVLYPVIVILTCDSVYMSGVVLMLFGCIMWLKLVSYAHTSSDIRTLAKSGYKGDAHPNSTIVSCSYDVSLKSLAYFMVAPTLCYQPSYPRSSCIRKGWVVRQFVKLIVFIGLMGFIIEQYINPIVRNSKHPLKGDFLYAIERVLKLSVPNLYVWLCMFYSFFHLWLNILAELLRFGDREFYKDWWNAKTVAEYWKMWNMPVHRWMVRHLYFPCLRNGIPKEGAIIIAFLVSGAFHELCIAVPCHVFKLWAFIGIMFQVPLVLITNYLQEKFSNSMVGNMIFWFIFCILGQPMCVLLYYHDLINLKEK
**Q.** Which “decrease in DGAT1 activity compared to wild type TmDGAT1” value [1] does the source give for B5 here?
**A.** 43%
